This is an account of results in a protein production outcome set (Wang et al. 2014).

The nature of the data set: label from the status in PepcDB records.

On to “MGVARPNFFIVGAAKCGTSSLDRYLSQHPDIYIPPKKEAHFFSIPDFPERFTGPGDEGMNLYTIRDEDAYMRLFDGVRGERAVGEASVFYLFYPGTAQRMYDAYPDAKILIMLRNPVDRAFSAYMHLVRDERETLSFRESLAKEEERIRQHYEPLWYYRAVGLYAAQVKRYLDVFGREQVKVILFEEFARDPVQVVRDCCAFLGVSTDFVPDTSIRHNESGVPKSRSLYNFIAKPNALKEIVKPFIPAAVRERLGNRAKSMVLGRMEMEPDLREELTAFFAPDVARLEALIHRDLSAWRRPARAAGSQ”, for which the protein production entry was “not failed”.
The value for “MGVFDKFLDIMKLNDDEYDDDDFYDDDFEDDDFDEKPHRSIFGNKKSRSDDFDDFDMDEDKHLAPSSGNKVTPMRQPAARRGVNMEVCVVKPTSVDDSREITETLLAGRTVILNLEGMDLEIAQRIIDFISGATFAISGNLQKISNYIFLVTPTNVDILEHHHHHH” was “not failed”; that for “MGVLQRFERRLEGMIEGTFARAFKSELQPVEVASNVQREMDERAAIVAQGRTLVPNDFVVELSASDRERLAVYADNLGQELSKLAREYATEQGYSFVGPVRVRFETADDLQTGRFRVRSAVIRGDTVKDGEIIKPVTDHPRRGSVIPGRPRLLLSPGGAAADGSLTAQGAQQAYELTSEVTLLGRGTDCDLRLVDNGVSRHHAEIRLEGNEAILVDLNSTNGTFVNGQQVQRARLVDGSRISLGRTTMTFRRD” was “failed”; that for “MGVLTTFISQKALVGGYDNTIEPGVVILSGATITCNVSIGQGTFINKSTVISHDVRIGRYCEVSPGAKVLGRAIIGDRTEIGANAVILPDVIVGADCKIGAGAVVTRNIDSHTTVAGVPARSITKSSNNAFKLKSKIRNLLYHIRIADFRKLREYNHYVFGLEHHHHHH” was “failed”.
Turning to “MGVLWNSIQSVLVVVLIMILGFVLRRAGWFDDKFAGTISKFIKNIALPASIFVSVLSRLTRGQLGSFAGYLAYAFLAVIIGYLIAFALVKVMRVRPGRKGIFINAIVNANTIFIGLPLNIALFGDKSMTYFLVYYIVNTVSTWAFGVFLISNDDPTKSKEKTHNKIDWKKVIPMPLVGFLVALIFLLLNIPIMKVSFVSSTLTYVGNLVTPLSLIYIGIVLADAGLKSIRFDRDTVVALVGRFILSPIVMILVLMVAGNLGASFPTLASQTLIVQSATPMLAVLPILANEAHGDVEYATNIVTTSTVLFIVVVPVLMTLIQYI”, the protein production result is “failed”.
On to “MGVNSQKSQGEDVSPDSNIETKEGTYVGLADTHTIEVTVDNEPVSLDITEESTSDLDKFNSGDKVTITYEKNDEGQLLLKDIERANLEHHHHHH”, for which the protein production entry is given as “failed”.
Then “MGWFSAPEYWLGRLALERGTAIIYLIAFVAAAQQFRPLIGEHGMLPVPRYLAGQSFWRTPSIFHFRYSDRVFAGVCWLGAVLSAAVVAGAASFVPLWATMLIWLTLWVLYLSIVNVGQAWYSFGWESLLLETGFLMIFLGNERTAPPILTLLLARWLLFRVEFGAGLIKMRGDSCWRSLTCLYYHHETQPMPGPLSWFFHHLPKPLHRIEVAGNHFAQLVVPFGLFTPQPAASIAAAIIVVTQLWLVASGNFSWLNWLTILLACSAIDTSSAAALLPMPAQPALSAPPQWFAGLVVVFTAAVLLLSYWPARNLLSSHQRMNMSFNPFHLVNTYGAFGSICRTRREVVIEGTDESPITEQTVWKAYEFKGKPGDPRRLPRQWAPYHLRLDWLMWFAAISPGYALPWMTPFLNRLLRNDPATLKLLRHNPFPQSPPRYVRAQLYQYRFTTVAELRRDRAWWHRTLIGRYVPPMSLRKVASPPAD”, with “failed”.
On to “MGWHCVFFQMDLRYCSVQTLARTHQVMRELVQASAFVELNRFFDRLEAQWRQAPPGEFPAYLAAIDGHMLLDQENQGDRALSQVLRAWIDACPRAYHPQVVMGMHCFHRACQVQVDGPRNAARLLAVAQICESATAHLLRAMDRSAHPVAAAIGMLRISAQFHEPGWLLQLFQGEPARFRPSAHADVEVQEAAAPLLVRHGLLPLAELPQSLPRYLGKRVDHENEDPRYYWLRHALIARPGCFEAIQALAVYLLPRWGGSLDAFELLVNGPLCATWDERLRNALRWMAVEGRLKLPQADKVQAVADWQHVFEDWSQRPLRPRERAVVLAWRGALRSRVSGDHAGAMRDFGASLACNADLGAIRAMGVPFRCLAELILRDGMADEKQLLHGAIERLCDGRSHAAACALRAVGHRFGLWALPRSAEQARLWLQRAVSRQCAGQAPGFEVLEVARLLWAANRHEVACYLYERCAELNLPGAALALYELHHGGLANTPAHYLDDEAAGYWLQRAVEAGSRQAKYNLACLRMDGDEDLNERSAMLAVRRLLVDALGNGQTNACARLHLGILLRRFGEAQERSEAVAYLLSLVEHPDPWLAGRASAELGLAWMQGRGTRKQSRFAAIQWVNRAASLQPRDSAIGDIQAQILNSHSRVKTLFTQCGAALFRGTLHASELPPKQAFTHAESLRVKPASDGLRRAHKPRLSGPMQG”, for which the protein production entry is listed as “failed”.
Regarding “MGWVTDWSAQAACRTTDPDELFVQGAAQNRAKAVCTGCPVRTECLADALDNRVEFGVWGGMTERERRALLRRRPTVTSWRRLLETARTEYERGVGIVPLDDDEVYENYAAVG”, the protein production result is listed as “failed”.
Then “MGYDPRISVSKWYEKWMLIYVVHSVKATTLSNYVNGFERVREYIGYMRLIEVRPTHILDMIKGLEEEGYARTTVIQSLSVVRQLFKKAYGGKMIPIDPVADIKLEHHHHHH”, with “not failed”; and “MHALYITHPQVKIDPAVPVPEWGLSERGAERAREASRLPWAKALRRIVSSAETKAIETAHMLAETSGAAIEIIEAMHENDRSATGFLPPPEFEKAADWFFAHPEESFQGWERAIDAQARIVEAVKAVLDRHDARQPIAFVGHGGVGTLLKCHIEGRGISRSKDQPAGGGNLFRFSIAEFSLAAASPTCDWTAMETWQG”, with “not failed”.
For “MHAQTKDLTPIKGIRYYYPPDDAVLVFKDEKERIHYGGMPVPLLEDDFARLDGEPSYDEVGRGVYQALRSNPDCILCDKYAALLRDAYPHYLAELASNAIMIDSKDVEVPYLDRKIACLKVLALLEPQNPALPLEIGRVFLDRGMRLSALHLSTVSIYRAEHFLNRAHTLAPDDRNINRYLGEAYYLLGKYDEAVGFWRKATTTDEPEAERLRERIERISAGNVPLIPPVDYLEAIGAAFACNQTGEYEESIAILQDILMDPVFSEEFPIPEIHCVIGKGFTALDMPKYAEAEFRQALVMDPAHEEARALLATIAAA”, the protein production result is recorded as “failed”.
Then “MHATDQTFQILLSQLLEKVEDRCPECGSEQYVWQQKNKDGTERCAPTCWSCGYKMLKKHEQQANQQRSQESFMARTQKFFHQGSLIADDALRQCRLTNYQTTELETRQAKERALAAVSAIVEGKPIHVIFSGKPGVGKSHLAISILVEVLERSAYQKYCLFVSYSELLEKLKMSMNESAKSQAKAQAYITRMKKADVLVLDDLGAELGIKNKVSTDFNNDILNRILEARQNKATIFTTNFSGKQLVEAYGTRIISRLMKHANGYVFQYKDTTDKRMRSVKLEHHHHHH”, with “failed”; and “MHDALRAYIEKYASEKISDADFEEVKKAFTFKRYKKGQFLLQEGEVSKYTAFVLKGSMRQYSVDAKGTEHIIHFGIENWWVGDRESSTMLTPSNYNIDAIEDTEVLLTTSEDLQQLTAALPVIGKMVNTMNQRNFIASQKRIHDALSLTAEERYLELLKNHPDFLQRFPQTMLASYLGITAETYSRIRKKALK”, with “not failed”; and “MHDGSVFYTIFLIFAGAAFFSTLVLYTKQSLLVAYITLGAILGPWGFKLVSDVTVVKQIGDIGIVFLLFLLGLHLQPQNLIHMLRKVTWIAIVSSILFAALAYGIGRWFGLTVTESLILGGAMMFSSTIIGLKLLPTTILHHQHTGEVMISVLLMQDVIAIVLLILLNSAHQDGNLSISDFILVIIALPALCLFSFLFERYILIKLLARFDRTQEYVFLLSIGWCLGISVLAQTIGLSEDIGAFIAGVALASSPISLFIAESLKPLRDFFLVMFFFSIGATFNFGFGAQVVIPAVILATLILIIKPLLFYILLARSGEKKQVAKEVGIRLGQGSEFSLLVASIALSTNLISEVASNLIQATTILTFIVSSYLVVLKYPTPIALSEKMRKD”, with “failed”.
On to “MHDTIPEYIRDGAQDMLAQGGVQKLGLKKEGGTWEIDGSIQSDDFQIYVSRISLTPSEHRASYVCNCSDSFSGVCRHVAATALKMLSTFDTRPGSDEPAKPRVEWRQSFRSFFSTALDPEPGKHYLIFRFHPEPGRLTVAFFRARQNKSGLSTVHNEITLEQIINNPEWCELSPQLVDVAKQVGQFVDYYGHRIEIPDGLVSWFFWAIRREYYLFWLDTESPCRIENTALGLKLHPRLGDDGLSFDVMLYREGKPPFSILGGENAATFHGQMPMWVCWNRSFYPVQTSLPPQLVQDLIRQHPSIPQEDMSEFLDRVWTRLPSSDLYGQEDFLKLMEPVFQPARYSPKLFLDEEGSLLTLEIQNVYETAHGEFYLAGPNPDFQTGSYTFEGTTFLIRRHQDEEAGLITQLSEMRFQPRSSRLWFLEPEEAIAFLLDAYPRLVEKYRVYGEKALSRYKVRLSQPVITAKVESNEEEKWFSLDIDVEYDGQKVPIDKIWKAWSQGKRYVQLKDGSYTSLPETWLERLGHKLQALGLDPDKPPQKQFKQFEAPVLDSLLDDLPGAETDSFWNSLRDKIRTFREIRAVNAPRGLNATLRGYQMQGLAYLNFLREYGFGGILADEMGLGKTVQTLSFVQHMVESGKIGPNLIVVPTSVLPNWEREAQKFVPELKRLIIYGTRREGMFKLIDESDLVVTTYALLRRDLEELQNHTFNCIILDEAQNIKNPNTITARSVRRIKADMRLCLSGTPIENNLFELWSLFEFLMPGFLGSQHAFQRGVIKPIKDGDCETLDYLRTRVRPFILRRTKSEVAKDLPPKIENTYYCALAEEQAELYTALARKLKEQVLADVDEKGLAKSQMSILDALLKLRQICCHPRLLKLDMPGFSTNLPSGKFDAFKDMITDIVEEGHKVLVFSQFVQMLHIIRSWLQISGTPFCYLDGTSKDRFEQVDKFNNSPDIPIFLISLKAGGTGLNLTSADYVIHYDPWWNPAVESQATDRTHRIGQTRQVFSYKLICQNTVEEKILKLQDMKRGVAEAIIPGQETWKSLTREDLEMLFDI”, for which the protein production result was “failed”.
With “MHEFLKAFKDAFPHTISILLGYLLMGMTFGMLLVQQGYDYKVALFMSLFIYAGAVQFVAITLLSAQASLMNVVIVSLLVNARQTCYALSMLDRFKNTKWRLPYLAHALTDETFALLNLYAPKEGVSEKDFIFSISLLNHSYWIFGSLVGSLVGSHFSFDTQGMEFVMTAIFIVLFMEQYKRTTNHKNAWLGIVIAVVCLALFGTEYFLLIALVLMVLALMLFRKQLEC”, the protein production result is recorded as “failed”.
Then “MHFHLRNLRLHMETNGTPQSPAGDWRSYERMLLPPIQDLHKLGVYEEHGGYDRLRRVLEDDAFEPSDVTDEVKASGLTGRGGAGFPTGIKWTFMPEPDERPRFIGVNADESEPGTFKDRQVMEYNPHLMLEGILLAGYALHIDTAYVYIRGEYTDWIVHLKEQLENAYEAGYVGENIMGSDFTMDIVLHKGAGAYICGEETSLMESLEGKRGYPRYKPPFPAQSGIFGSPTTINNAETLAHVPLIVEQGGEAYSNIGAGDMPGPALYGMSGHVKNPGVYEFPTGMLLTDMIYDVCGGMARDKDLKAVVPGGSSVPPVPADQIDGISMNDESLGEVGSRTGTFCPLVLDEETDMVSFLRRVAHFYQDETCGQCTPCREGTSWLEKILARIDEGEGRMRDIDLLLELCDNMDGGRTICAFADGAVGPVRATVKRFREEFAAKCQASVHPVSTEVSAGAGSAVAATE”, with “failed”.
